In US20160159862A1 (PROTAGONIST THERAPEUTICS, published 2016):
Bridge positions count the residues as written; N and C are the ends. Square brackets hold non-standard residues; d marks the D form. Phe(4-COOH) = N[C@@H](Cc1ccc(C(=O)O)cc1)C(=O)O; Bip = N[C@@H](Cc1ccc(-c2ccccc2)cc1)C(=O)O; 1Nal = N[C@@H](Cc1cccc2ccccc12)C(=O)O; 2Nal = N[C@@H](Cc1ccc2ccccc2c1)C(=O)O; NMeR = CN[C@@H](CCCNC(=N)N)C(=O)O; Tic = O=C(O)[C@@H]1Cc2ccccc2CN1; β3hE = N[C@@H](CCC(=O)O)CC(=O)O; NMeK = CN[C@@H](CCCCN)C(=O)O; Pen = CC(C)(S)[C@H](N)C(=O)O; dNMeK = CN[C@H](CCCCN)C(=O)O

Legend:
[1] = biological target: α4β1 (R&D Systems #5668-A4) (UniProt P13612); test: α4β1-VCAM competition ELISA
[2] = biological target: rh integrin α4β7 (R&D Systems #5397-A30) (human) (UniProt P13612); test: α4β7-MAdCAM competition ELISA
[3] = biological target: T1, α4β7 integrin on human cells (human, UniProt P13612 34-1032; P26010 20-798); test: cell-based or functional assay
[4] = biological target: T2, α4β7 integrin on mouse TK1 cells (mouse, UniProt Q00651 41-1039; P26011 20-806); test: cell-based or functional assay
T2 sequence (Q00651 41-1039, chain 1 of 2): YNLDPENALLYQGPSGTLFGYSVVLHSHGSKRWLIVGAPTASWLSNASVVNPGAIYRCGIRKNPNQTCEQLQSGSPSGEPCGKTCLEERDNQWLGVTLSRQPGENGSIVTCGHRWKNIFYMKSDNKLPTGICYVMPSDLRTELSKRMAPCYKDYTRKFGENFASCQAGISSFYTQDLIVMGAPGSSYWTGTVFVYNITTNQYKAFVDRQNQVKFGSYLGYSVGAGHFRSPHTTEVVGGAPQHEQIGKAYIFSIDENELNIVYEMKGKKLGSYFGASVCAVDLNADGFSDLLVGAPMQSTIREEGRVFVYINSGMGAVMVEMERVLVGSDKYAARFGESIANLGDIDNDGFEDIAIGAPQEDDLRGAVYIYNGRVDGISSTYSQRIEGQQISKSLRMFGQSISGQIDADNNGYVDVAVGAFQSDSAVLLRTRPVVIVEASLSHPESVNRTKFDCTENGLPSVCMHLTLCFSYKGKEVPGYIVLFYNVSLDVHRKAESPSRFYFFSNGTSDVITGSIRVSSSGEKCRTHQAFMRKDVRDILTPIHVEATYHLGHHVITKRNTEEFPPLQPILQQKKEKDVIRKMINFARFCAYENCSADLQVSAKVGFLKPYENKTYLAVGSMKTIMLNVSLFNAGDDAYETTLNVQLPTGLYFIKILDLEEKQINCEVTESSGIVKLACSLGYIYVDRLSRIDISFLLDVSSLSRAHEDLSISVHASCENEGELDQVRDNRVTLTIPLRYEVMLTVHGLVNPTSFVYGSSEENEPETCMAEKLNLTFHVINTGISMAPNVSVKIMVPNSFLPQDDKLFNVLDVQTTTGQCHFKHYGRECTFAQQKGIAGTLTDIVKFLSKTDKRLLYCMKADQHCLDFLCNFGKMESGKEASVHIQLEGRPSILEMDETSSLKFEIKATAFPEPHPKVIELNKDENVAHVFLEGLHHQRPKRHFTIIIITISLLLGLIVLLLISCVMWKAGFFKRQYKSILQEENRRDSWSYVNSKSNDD
T2 sequence (P26011 20-806, chain 2 of 2): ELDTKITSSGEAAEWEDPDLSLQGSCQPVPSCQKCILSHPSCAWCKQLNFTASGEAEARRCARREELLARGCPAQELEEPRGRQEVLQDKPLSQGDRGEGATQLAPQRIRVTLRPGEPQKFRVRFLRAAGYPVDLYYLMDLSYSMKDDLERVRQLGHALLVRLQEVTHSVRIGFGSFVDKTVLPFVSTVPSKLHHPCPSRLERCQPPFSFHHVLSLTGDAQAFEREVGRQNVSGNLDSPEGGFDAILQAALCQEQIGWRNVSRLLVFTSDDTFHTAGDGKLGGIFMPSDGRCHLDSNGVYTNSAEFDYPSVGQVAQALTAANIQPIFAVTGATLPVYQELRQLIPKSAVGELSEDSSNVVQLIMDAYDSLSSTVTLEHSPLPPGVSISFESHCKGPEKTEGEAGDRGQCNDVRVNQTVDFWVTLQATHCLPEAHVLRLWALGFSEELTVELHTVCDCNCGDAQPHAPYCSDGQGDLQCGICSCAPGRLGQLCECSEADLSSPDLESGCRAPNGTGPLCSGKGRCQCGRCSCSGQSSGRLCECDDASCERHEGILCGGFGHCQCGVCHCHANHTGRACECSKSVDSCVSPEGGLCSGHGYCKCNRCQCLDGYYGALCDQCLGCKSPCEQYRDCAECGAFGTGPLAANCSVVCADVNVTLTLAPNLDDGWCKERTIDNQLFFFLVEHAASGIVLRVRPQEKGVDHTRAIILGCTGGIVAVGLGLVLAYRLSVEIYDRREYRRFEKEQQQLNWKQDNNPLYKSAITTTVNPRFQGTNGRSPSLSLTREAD

[5] = biological target: α4β7 integrin on human cells (human) (UniProt P13612); test: FACS, human whole blood, 1 mM MnCl2, Basophils
[6] = biological target: α4β7 integrin on human cells (human) (UniProt P13612); test: FACS, human whole blood, 1 mM MnCl2, Monocytes
[7] = biological target: α4β7 integrin on human cells (human) (UniProt P13612); test: FACS, human whole blood, 1 mM MnCl2, Eosinophils
[8] = biological target: α4β7 integrin on human cells (human) (UniProt P13612); test: FACS, human whole blood, 1 mM MnCl2, Neutrophils
[9] = biological target: α4β7 integrin on human cells (human) (UniProt P13612); test: FACS, human whole blood, 1 mM MnCl2, CD19+ B cells
[10] = biological target: α4β7 integrin on human cells (human) (UniProt P13612); test: FACS, human whole blood, 1 mM MnCl2, CD4 naïve T cells
[11] = biological target: α4β7 integrin on human cells (human) (UniProt P13612); test: FACS, human whole blood, 1 mM MnCl2, CD8 naïve T cells
[12] = biological target: α4β7 integrin on human cells (human) (UniProt P13612); test: FACS, human whole blood, 1 mM MnCl2, CD4 memory T cells
[13] = biological target: α4β7 integrin on human cells (human) (UniProt P13612); test: FACS, human whole blood, 1 mM MnCl2, CD8 memory T cells
[14] = biological target: α4β7 integrin on human cells (human) (UniProt P13612); test: FACS, human whole blood, 1 mM MnCl2, NK cells CD16+ 56+
[15] = biological target: soluble α4β7 integrin (Homo sapiens (Human)) (UniProt P13612); test: SPR, antibody on streptavidin chip, soluble α4β7 as analyte
[16] = biological target: T1, α4β7 integrin on human cells; test: cell-based or functional assay; remark: listed apart in the source
[17] = biological target: T2, α4β7 integrin on mouse TK1 cells; test: cell-based or functional assay; remark: listed apart in the source
[18] = biological target: T3, α4β1 integrin on human cells (human, UniProt P13612 34-1032; P05556 21-798); test: cell-based or functional assay
[19] = biological target: T4, α4β1 (R&D Systems #5668-A4) (UniProt P13612 34-977; P05556 21-728); test: α4β1-VCAM competition ELISA
T4 construct: bought; also called soluble α4β1
Experimental: The solution was removed by shaking and then blocked with 250 ul of 1% BSA in 1×PBS per well. The wells were then incubated at room temperature for 1 hr with shaking. Each well was then washed once with wash buffer (50 mM Tris-HCl pH7.6, 100 mM NaCL, 1 mM MnCl2 or MgCl2, 0.05% Tween-20). 25 ul of serial dilutions of peptides starting at 200 μM in assay buffer (Assay buffer: 50 mM Tris-HCl pH7.6, 100 mM NaCl, 1 mM MnCl2 or MgCl2, 0.05% Tween-20) was added to each well. Additionally, 25 ul of α4β1 (R&D Systems #5668-A4) was added to each well at a fixed concentration of 120 nM. The final peptide and α4β1 concentrations were 100 μM and 60 nM, respectively. The plates were then incubated at 37° C. for 2 hr. The solution was then removed by shaking, and each well was washed three times with wash buffer. 50 ul of 9F10 antibody at 4 ug/ml (purified mouse anti-human CD49d, BD Bioscience Cat#555502) was then added to each well, and the plate was incubated at room temperature for 1 hr with shaking. The solution was again removed by shaking, and each well was washed three times with wash buffer. 50 ul of peroxidase-conjugated AffiniPure Goat anti-mouse IgG (Jackson immune research cat #115-035-003) diluted in 1:5000 in assay buffer was added to each well. The plate was incubated at room temperature for 30 min with shaking. […] The reaction was stepped with 2N H₂SO₄ and absorbance was read at 450 nm.

[20] = biological target: T3, α4β1 integrin on human cells; test: cell-based or functional assay; remark: listed apart in the source

Binder	IC50 [1] [nM]	IC50 [2] [nM]	α4β7 cell (Hu) IC50 [3] [nM]	α4β7 cell(Mu) IC50 [4] [nM]	further results
Ac-[Pen][NMeR]SDTL[Pen][1Nal]E[dNMeK]-NH2 (disulfide 1-7 (inferred); also: homodimer via DIG linker) [SEQ ID NO 44]	> 100	< 10	≤ 10	≤ 10	
Ac-[Pen][NMeR]SDTL[Pen]WE(OMe)[dK]-NH2 (disulfide 1-7 (inferred); also: homodimer linked by DIG) [SEQ ID NO 86]			≤ 10	≤ 10	
biotin-labeled vedolizumab (antibody, INN chains, looked up, V domains shown, biotin label) VH: QVQLVQSGAEVKKPGASVKVSCKGSGYTFTSYWMHWVRQAPGQRLEWIGEIDPSESNTNYNQKFKGRVTLTVDISASTAYMELSSLRSEDTAVYYCARGGYDGWDYAIDYWGQGTLVTVSS VL: DVVMTQSPLSLPVTPGEPASISCRSSQSLAKSYGNTYLSWYLQKPGQSPQLLIYGISNRFSGVPDRFSGSGSGTDFTLKISRVEAEDVGVYYCLQGTHQPYTFGQGTKVEIKR					Percent positive staining [5]: 86%; Percent positive staining [6]: 7%; Percent positive staining [7]: 91%; Percent positive staining [8]: 0.45%; Percent positive staining [9]: 85%; Percent positive staining [10]: 55%; Percent positive staining [11]: 53%; Percent positive staining [12]: 22%; Percent positive staining [13]: 36%; Percent positive staining [14]: 42%; Half-life for dissociation [15]: 43 min; Kd [15]: 59.5 nM; koff [15]: 0.000266 s⁻¹; kon [15]: 4470 M⁻¹ s⁻¹
Ac-[Pen][NMeR]SDTL[Pen][2Nal][β3hE][dK]-NH2 (disulfide 1-7 (inferred); also: homodimer via DIG) [SEQ ID NO 137]	> 1000	< 10	≤ 10		
Ac-[Pen][NMeR]SDTL[Pen][2Nal][b‑H‑E]-NH2 (disulfide 1-7 (inferred)) [SEQ ID NO 155]	> 1000		> 25	> 25	
Ac-[Pen][NMeR]SDTL[Pen][2Nal]E[dK]-NH2 (disulfide 1-7 (inferred)) [SEQ ID NO 210]	200	11			Cell Adhesion PBMC IC50 [16]: 517 nM; Cell Adhesion α4β7 IC50 [16]: 40 nM; Cell Adhesion α4β7 Mouse IC50 [17]: 60 nM; Cell Adhesion α4β1 IC50 [18]: > 100000 nM
Ac-[Pen][NMeR]SDTL[Pen][Bip][b‑H‑E][NMeK]-NH2 (disulfide 1-7 (inferred); also: homodimer via DIG) [SEQ ID NO 150]	> 1000	< 10	≤ 10	≤ 10	
Ac-[Pen][NMeR]SDTL[Pen][2Nal]E[dK]-NH2 (disulfide 1-7 (inferred); also: homodimer via DIG) [SEQ ID NO 212]	70	2			Cell Adhesion α4β7 IC50 [16]: 2.5 nM; Cell Adhesion α4β7 Mouse IC50 [17]: 2.5 nM; Cell Adhesion α4β1 IC50 [18]: > 100000 nM
Ac-[Pen][NMeR]SDTL[Pen][Tic][β3hE]-NH2 (disulfide 1-7 (inferred)) [SEQ ID NO 154]	> 1000		> 100	> 1000	
Ac-[Pen][NMeR]SDTL[Pen][Phe(4-COOH)]E[dK]-NH2 (disulfide 1-7; not fully specified (residue 10); printed as (Ac-Pen-(N-Me-R)-S-D-T-L-Pen-F(4-COOH)-E-k-NH2)2-DIG; also: homodimer of two subunits joined by DIG linker) [SEQ ID NO 129]					IC50 [19]: > 100 nM
Ac-[Pen][NMeR]SDTL[Pen][2Nal][dE][dK]-NH2 (disulfide 1-7 (inferred); also: homodimer via DIG linker) [SEQ ID NO 33]	> 100	< 10	> 10		α4β1 cell IC50 [20]: > 100000 nM
Ac-[Pen][NMeR]SDTL[Pen][1Nal][β3hE][NMeK]-NH2 (disulfide 1-7 (inferred); also: homodimer via DIG) [SEQ ID NO 142]	> 500	< 10	≤ 10		PBMC IC50 [3]: > 50 nM
Ac-[Pen][NMeR]SDTL[Pen][2Nal]E[dNMeK]-NH2 (disulfide 1-7 (inferred); also: homodimer via DIG linker) [SEQ ID NO 41]	> 100	< 10	≤ 10		
Ac-[Pen][NMeR]SDTL[Pen][Bip]E[dK]-NH2 (disulfide 1-7 (inferred); also: homodimer via DIG) [SEQ ID NO 134]	> 100	< 10	≤ 10		
